Values quoted from earlier work, collected in patent US20100215737A1, “COMBINATION PHARMACEUTICAL COMPOSITIONS” (priority 2007, published 2010).

System: MCO
Conditions: 1 mg/kg iv alone, 1, 2 or 3 h after occlusion

B1: rt-PA: tissue plasminogen activator, thrombolytic (protein, UniProt P00750 36-562, looked up)
Tissue-type plasminogen …: SYQVICRDEKTQMIYQQHQSWLRPVLRSNRVEYCWCNSGRAQCHSVPVKSCSEPRCFNGGTCQQALYFSDFVCQCPEGFAGKCCEIDTRATCYEDQGISYRGTWSTAESGAECTNWNSSALAQKPYSGRRPDAIRLGLGNHNYCRNPDRDSKPWCYVFKAGKYSSEFCSTPACSEGNSDCYFGNGSAYRGTHSLTESGASCLPWNSMILIGKVYTAQNPSAQALGLGKHNYCRNPDGDAKPWCHVLKNRRLTWEYCDVPSCSTCGLRQYSQPQFRIKGGLFADIASHPWQAAIFAKHRRSPGERFLCGGILISSCWILSAAHCFQERFPPHHLTVILGRTYRVVPGEEEQKFEVEKYIVHKEFDDDTYDNDIALLQLKSDSSRCAQESSVVRTVCLPPADLQLPDWTECELSGYGKHEALSPFYSERLKEAHVRLYPSSRCTSQHLLNRTVTDNMLCAGDTRSGGPQANLHDACQGDSGGPLVCLNDGRMTLVGIISWGLGCGQKDVPGVYTKVTNYLDWIRDNMRP
- neuroprotective effect, drug alone: neuroprotective effects when administered alone up to 1 h following occlusion
